# From FireProtDB (doi:10.1016/0022-2836(92)90906-z)
# B1: Ribonuclease wild type, P00648 (protein)
# chain: MMKMEGIALKKRLSWISVCLLVLVSAAGMLFSTAAKTETSSHKAHTEAQVINTFDGVADYLQTYHKLPDNYITKSEAQALGWVASKGNLADVAPGKSIGGDIFSNREGKLPGKSGRTWREADINYTSGFRNSDRILYSSDWLIYKTTDHYQTFTKIR
# Settings: Bacillus amyloliquefaciens; pH 6.3; 25 °C; Urea; Fluorescence; MES 1.00 M; NaCl 613 mM; reversible: yes; whole UniProt chain shown
protein,measurement,value
B1,denaturant m value,1.93 kcal/mol/M
same,denaturant midpoint (higher = more stable),4.57 M
same,unfolding free energy,8.8 kcal/mol
